Reference: US20230192861A1

What was measured:
[1] = biological target: human B7-H3 expressed on the surface of human cancer cell lines (human) (UniProt Q5ZPR3); experiment: FACS on HCT116 cells, 10 ug/ml
[2] = biological target: human B7-H3 expressed on the surface of human cancer cell lines (human) (UniProt Q5ZPR3); experiment: FACS on Panc-1 cells, 10 ug/ml
[3] = biological target: human B7-H3 expressed on the surface of human cancer cell lines (human) (UniProt Q5ZPR3); experiment: FACS on A2780 cells, 10 ug/ml
[4] = biological target: human B7-H3 expressed on the surface of human cancer cell lines (human) (UniProt Q5ZPR3); experiment: FACS on NCI-N87 cells, 10 ug/ml
[5] = biological target: human B7-H3 expressed on the surface of human cancer cell lines (human) (UniProt Q5ZPR3); experiment: FACS on Hela cells, 10 ug/ml
[6] = biological target: human B7-H3 expressed on the surface of human cancer cell lines (human) (UniProt Q5ZPR3); experiment: FACS on 786-0 cells, 10 ug/ml
[7] = biological target: human B7-H3 expressed on the surface of human cancer cell lines (human) (UniProt Q5ZPR3); experiment: FACS on HCC1954 cells, 10 ug/ml
[8] = biological target: human B7-H3 expressed on the surface of human cancer cell lines (human) (UniProt Q5ZPR3); experiment: FACS on Calu-6 cells, 10 ug/ml
[9] = biological target: human B7-H3 expressed on the surface of human cancer cell lines (human) (UniProt Q5ZPR3); experiment: FACS on HCC1187 cells, 10 ug/ml
[10] = biological target: human B7-H3 expressed on the surface of human cancer cell lines (human) (UniProt Q5ZPR3); experiment: FACS on MDA-MB-231 cells, 10 ug/ml
[11] = biological target: human B7-H3 expressed on the surface of human cancer cell lines (human) (UniProt Q5ZPR3); experiment: FACS on MCF-7 cells, 10 ug/ml
[12] = biological target: human B7-H3 expressed on the surface of human cancer cell lines (human) (UniProt Q5ZPR3); experiment: FACS on MDA-MB-468 cells, 10 ug/ml
[13] = biological target: human B7-H3 expressed on the surface of human cancer cell lines (human) (UniProt Q5ZPR3); experiment: FACS on HT29 cells, 10 ug/ml
[14] = biological target: human B7-H3 expressed on the surface of human cancer cell lines (human) (UniProt Q5ZPR3); experiment: FACS on SKOV-3 cells, 10 ug/ml
[15] = biological target: human B7-H3 expressed on the surface of human cancer cell lines (human) (UniProt Q5ZPR3); experiment: FACS on OVCAR-3 cells, 10 ug/ml
[16] = biological target: human B7-H3 expressed on the surface of human cancer cell lines (human) (UniProt Q5ZPR3); experiment: FACS on JeKo-1 cells, 10 ug/ml
[17] = biological target: human B7-H3 expressed on the surface of human cancer cell lines (human) (UniProt Q5ZPR3); experiment: FACS on DLD-1 cells, 10 ug/ml
[18] = biological target: human B7-H3 expressed on the surface of human cancer cell lines (human) (UniProt Q5ZPR3); experiment: FACS on A-498 cells, 10 ug/ml

Sequence of human B7-H3 expressed on the surface of human cancer cell lines (human) (Q5ZPR3 29-534): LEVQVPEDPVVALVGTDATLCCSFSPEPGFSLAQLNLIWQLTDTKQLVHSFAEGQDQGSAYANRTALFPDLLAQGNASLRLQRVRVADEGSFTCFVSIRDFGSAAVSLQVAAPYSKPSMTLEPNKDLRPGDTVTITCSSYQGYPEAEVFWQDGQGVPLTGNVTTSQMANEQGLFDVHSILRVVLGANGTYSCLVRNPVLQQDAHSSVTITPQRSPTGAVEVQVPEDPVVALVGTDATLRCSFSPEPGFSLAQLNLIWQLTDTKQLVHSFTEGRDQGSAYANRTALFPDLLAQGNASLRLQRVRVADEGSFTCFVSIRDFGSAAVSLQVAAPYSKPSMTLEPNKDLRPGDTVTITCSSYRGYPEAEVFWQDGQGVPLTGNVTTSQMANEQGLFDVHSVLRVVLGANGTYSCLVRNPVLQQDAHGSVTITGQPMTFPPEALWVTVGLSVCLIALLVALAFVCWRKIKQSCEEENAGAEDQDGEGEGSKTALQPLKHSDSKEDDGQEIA

MFI Ratio [1]: 5.9 | MFI Ratio [2]: 9 | MFI Ratio [3]: 13.1 | MFI Ratio [4]: 12.8 | MFI Ratio [5]: 23.5 | MFI Ratio [6]: 20 | MFI Ratio [7]: 14 | MFI Ratio [8]: 23.2 | MFI Ratio [9]: 14.9 | MFI Ratio [10]: 5.4 | MFI Ratio [11]: 78 | MFI Ratio [12]: 8.6 | MFI Ratio [13]: 8.9 | MFI Ratio [14]: 11.9 | MFI Ratio [15]: 13.7 | MFI Ratio [16]: 2.9 | MFI Ratio [17]: 10.7 | MFI Ratio [18]: 24
B1: 84D (comparison anti-B7-H3 antibody, Enoblituzumab variable regions) (antibody, part only; not given: constant regions, V domains shown, not shown: another chain or arm of the molecule)
VH: EVQLVESGGGLVQPGGSLRLSCAASGFTFSSFGMHWVRQAPGKGLEWVAYISSDSSAIYYADTVKGRFTISRDNAKNSLYLQMNSLRDEDTAVYYCGRGRENIYYGSRLDYWGQGTTVTVSS
VL: DIQLTQSPSFLSASVGDRVTITCKASQNVDTNVAWYQQKPGKAPKALIYSASYRYSGVPSRFSGSGSGTDFTLTISSLQPEDFATYYCQQYNNYPFTFGQGTKLEIK
